# Target: MAGI2_4, Q86UL8
# Assay: holdup assay
# Set-up: key: below the threshold = too weak to quantify, mostly under pKd 3.1 to 4
# Details: plain residues with an end cap or a label only (N-terminal biotin on a linker: ado-ado)
# MAGI2_4, Q86UL8, sequence (Q86UL8 772-865): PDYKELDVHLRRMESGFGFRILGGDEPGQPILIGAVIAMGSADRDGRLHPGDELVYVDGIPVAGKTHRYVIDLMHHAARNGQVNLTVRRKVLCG
row,Binder,pKd
1,"RFQQRMQTHV [KIRREL1, Q96J84]",3.76
2,"EPQYQPGENL [SRC, P12931]",below the threshold

# Target: T1, APBA3_1, O96018
# T1 sequence (O96018 389-490, limits assumed, looked up): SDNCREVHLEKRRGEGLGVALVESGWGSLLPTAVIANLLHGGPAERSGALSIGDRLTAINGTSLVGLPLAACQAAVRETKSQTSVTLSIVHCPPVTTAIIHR
# Assay: holdup assay
# Set-up: key: below the threshold = too weak to quantify, mostly under pKd 3.1 to 4
# Details: plain residues with an end cap or a label only (N-terminal biotin on a linker: ado-ado)
row,Binder,pKd
1,"RFQQRMQTHV [KIRREL1, Q96J84]",below the threshold
2,"EPQYQPGENL [SRC, P12931]",below the threshold

# Target: T2, LRRC7, Q96NW7
# T2 sequence (Q96NW7 1440-1537, limits assumed, looked up): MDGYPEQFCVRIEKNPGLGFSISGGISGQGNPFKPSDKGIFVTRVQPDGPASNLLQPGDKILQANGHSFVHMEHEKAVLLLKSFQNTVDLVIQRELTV
# Assay: holdup assay
# Set-up: key: below the threshold = too weak to quantify, mostly under pKd 3.1 to 4
# Details: plain residues with an end cap or a label only (N-terminal biotin on a linker: ado-ado)
row,Binder,pKd
1,"RFQQRMQTHV [KIRREL1, Q96J84]",below the threshold
2,"EPQYQPGENL [SRC, P12931]",below the threshold

# Target: T3, NHERF3_1, Q5T2W1
# T3 sequence (Q5T2W1 4-100, limits assumed, looked up): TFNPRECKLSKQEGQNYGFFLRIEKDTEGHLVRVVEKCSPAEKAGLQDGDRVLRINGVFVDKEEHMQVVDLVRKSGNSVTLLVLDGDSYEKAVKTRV
# Assay: holdup assay
# Set-up: key: below the threshold = too weak to quantify, mostly under pKd 3.1 to 4
# Details: plain residues with an end cap or a label only (N-terminal biotin on a linker: ado-ado)
row,Binder,pKd
1,"RFQQRMQTHV [KIRREL1, Q96J84]",5.03
2,"EPQYQPGENL [SRC, P12931]",3.82

# Target: Inadl_5, Q8NI35
# Sequence (Q8NI35 673-780): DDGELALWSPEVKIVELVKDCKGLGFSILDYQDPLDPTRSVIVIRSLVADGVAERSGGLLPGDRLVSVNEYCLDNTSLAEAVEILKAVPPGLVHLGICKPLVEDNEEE
# Assay: holdup assay
# Set-up: key: below the threshold = too weak to quantify, mostly under pKd 3.1 to 4
# Details: plain residues with an end cap or a label only (N-terminal biotin on a linker: ado-ado)
row,Binder,pKd
1,"RFQQRMQTHV [KIRREL1, Q96J84]",3.6
2,"EPQYQPGENL [SRC, P12931]",below the threshold

# Target: LNX1_3, Q8TBB1
# Sequence (Q8TBB1 500-596): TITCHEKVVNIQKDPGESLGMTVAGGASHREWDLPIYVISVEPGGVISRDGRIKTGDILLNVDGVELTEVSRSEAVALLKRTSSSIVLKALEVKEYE
# Assay: holdup assay
# Set-up: key: below the threshold = too weak to quantify, mostly under pKd 3.1 to 4
# Details: plain residues with an end cap or a label only (N-terminal biotin on a linker: ado-ado)
row,Binder,pKd
1,"RFQQRMQTHV [KIRREL1, Q96J84]",below the threshold
2,"EPQYQPGENL [SRC, P12931]",below the threshold

# Target: CASK, O14936
# Sequence (O14936 487-570): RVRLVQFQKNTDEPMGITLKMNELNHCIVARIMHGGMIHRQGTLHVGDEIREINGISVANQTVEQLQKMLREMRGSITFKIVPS
# Assay: holdup assay
# Set-up: key: below the threshold = too weak to quantify, mostly under pKd 3.1 to 4
# Details: plain residues with an end cap or a label only (N-terminal biotin on a linker: ado-ado)
row,Binder,pKd
1,"RFQQRMQTHV [KIRREL1, Q96J84]",below the threshold
2,"EPQYQPGENL [SRC, P12931]",below the threshold

# Target: T4, PTPN13_1, Q12923
# T4 sequence (Q12923 1088-1188, limits assumed, looked up): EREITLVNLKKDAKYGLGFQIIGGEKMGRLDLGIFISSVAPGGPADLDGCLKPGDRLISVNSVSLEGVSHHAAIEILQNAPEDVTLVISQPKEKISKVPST
# Assay: holdup assay
# Set-up: key: below the threshold = too weak to quantify, mostly under pKd 3.1 to 4
# Details: plain residues with an end cap or a label only (N-terminal biotin on a linker: ado-ado)
row,Binder,pKd
1,"RFQQRMQTHV [KIRREL1, Q96J84]",below the threshold
2,"EPQYQPGENL [SRC, P12931]",below the threshold

# Target: PDZRN4_1, Q6ZMN7
# Sequence (Q6ZMN7 213-318): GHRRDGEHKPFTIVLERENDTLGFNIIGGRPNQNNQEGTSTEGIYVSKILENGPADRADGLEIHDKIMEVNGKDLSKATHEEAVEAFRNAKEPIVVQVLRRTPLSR
# Assay: holdup assay
# Set-up: key: below the threshold = too weak to quantify, mostly under pKd 3.1 to 4
# Details: plain residues with an end cap or a label only (N-terminal biotin on a linker: ado-ado)
row,Binder,pKd
1,"RFQQRMQTHV [KIRREL1, Q96J84]",below the threshold
2,"EPQYQPGENL [SRC, P12931]",3.52

# Target: T5, SNTA1, Q13424
# T5 sequence (Q13424 82-180, limits assumed, looked up): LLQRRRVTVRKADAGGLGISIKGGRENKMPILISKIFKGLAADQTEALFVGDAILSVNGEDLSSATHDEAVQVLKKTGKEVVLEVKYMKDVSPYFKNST
# Assay: holdup assay
# Set-up: key: below the threshold = too weak to quantify, mostly under pKd 3.1 to 4
# Details: plain residues with an end cap or a label only (N-terminal biotin on a linker: ado-ado)
row,Binder,pKd
1,"RFQQRMQTHV [KIRREL1, Q96J84]",below the threshold
2,"EPQYQPGENL [SRC, P12931]",below the threshold

# Target: T6, MPDZ_12, O75970
# T6 sequence (O75970 1857-1958, limits assumed, looked up): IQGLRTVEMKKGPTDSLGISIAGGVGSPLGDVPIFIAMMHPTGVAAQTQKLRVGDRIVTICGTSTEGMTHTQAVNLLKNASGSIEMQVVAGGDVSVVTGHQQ
# Assay: holdup assay
# Set-up: key: below the threshold = too weak to quantify, mostly under pKd 3.1 to 4
# Details: plain residues with an end cap or a label only (N-terminal biotin on a linker: ado-ado)
row,Binder,pKd
1,"RFQQRMQTHV [KIRREL1, Q96J84]",below the threshold
2,"EPQYQPGENL [SRC, P12931]",below the threshold

# Target: DLG1_2, Q12959
# Assay: holdup assay
# Set-up: key: below the threshold = too weak to quantify, mostly under pKd 3.1 to 4
# Details: plain residues with an end cap or a label only (N-terminal biotin on a linker: ado-ado)
row,Binder,pKd
1,"RFQQRMQTHV [KIRREL1, Q96J84]",4.74
2,"EPQYQPGENL [SRC, P12931]",below the threshold

# Target: T7, SYNJ2BP, P57105
# T7 sequence (P57105 8-110, limits assumed, looked up): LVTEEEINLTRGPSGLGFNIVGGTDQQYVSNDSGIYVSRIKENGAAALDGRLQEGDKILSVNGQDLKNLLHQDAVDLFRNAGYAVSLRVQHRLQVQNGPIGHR
# Assay: holdup assay
# Set-up: key: below the threshold = too weak to quantify, mostly under pKd 3.1 to 4
# Details: plain residues with an end cap or a label only (N-terminal biotin on a linker: ado-ado)
row,Binder,pKd
1,"RFQQRMQTHV [KIRREL1, Q96J84]",4.61
2,"EPQYQPGENL [SRC, P12931]",below the threshold

# Target: T8, TJP3_3, O95049
# T8 sequence (O95049 375-456, limits assumed, looked up): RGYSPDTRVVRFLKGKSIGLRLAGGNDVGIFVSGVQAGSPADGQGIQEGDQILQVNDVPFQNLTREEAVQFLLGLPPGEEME
# Assay: holdup assay
# Set-up: key: below the threshold = too weak to quantify, mostly under pKd 3.1 to 4
# Details: plain residues with an end cap or a label only (N-terminal biotin on a linker: ado-ado)
row,Binder,pKd
1,"RFQQRMQTHV [KIRREL1, Q96J84]",below the threshold
2,"EPQYQPGENL [SRC, P12931]",below the threshold

# Target: MAGI1_2, Q96QZ7
# Sequence (Q96QZ7 456-580): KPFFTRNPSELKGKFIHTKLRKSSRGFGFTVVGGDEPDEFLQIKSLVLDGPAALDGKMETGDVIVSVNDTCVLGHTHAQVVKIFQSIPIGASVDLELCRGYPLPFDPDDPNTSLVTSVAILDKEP
# Assay: holdup assay
# Set-up: key: below the threshold = too weak to quantify, mostly under pKd 3.1 to 4
# Details: plain residues with an end cap or a label only (N-terminal biotin on a linker: ado-ado)
row,Binder,pKd
1,"RFQQRMQTHV [KIRREL1, Q96J84]",5.41
2,"EPQYQPGENL [SRC, P12931]",below the threshold

# Target: DLG1_1, Q12959
# Assay: holdup assay
# Set-up: key: below the threshold = too weak to quantify, mostly under pKd 3.1 to 4
# Details: plain residues with an end cap or a label only (N-terminal biotin on a linker: ado-ado)
row,Binder,pKd
1,"RFQQRMQTHV [KIRREL1, Q96J84]",4.17
2,"EPQYQPGENL [SRC, P12931]",below the threshold

# Target: DLG1_3, Q12959
# Assay: holdup assay
# Set-up: key: below the threshold = too weak to quantify, mostly under pKd 3.1 to 4
# Details: plain residues with an end cap or a label only (N-terminal biotin on a linker: ado-ado)
row,Binder,pKd
1,"RFQQRMQTHV [KIRREL1, Q96J84]",3.68
2,"EPQYQPGENL [SRC, P12931]",below the threshold

# Target: T9, MPDZ_10, O75970
# T9 sequence (O75970 1624-1722, limits assumed, looked up): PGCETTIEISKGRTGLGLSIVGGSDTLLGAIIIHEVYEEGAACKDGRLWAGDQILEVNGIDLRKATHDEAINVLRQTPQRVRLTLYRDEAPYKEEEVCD
# Assay: holdup assay
# Set-up: key: below the threshold = too weak to quantify, mostly under pKd 3.1 to 4
# Details: plain residues with an end cap or a label only (N-terminal biotin on a linker: ado-ado)
row,Binder,pKd
1,"RFQQRMQTHV [KIRREL1, Q96J84]",below the threshold
2,"EPQYQPGENL [SRC, P12931]",below the threshold

# Target: T10, GRIP1_7, Q9Y3R0
# T10 sequence (Q9Y3R0 999-1096, limits assumed, looked up): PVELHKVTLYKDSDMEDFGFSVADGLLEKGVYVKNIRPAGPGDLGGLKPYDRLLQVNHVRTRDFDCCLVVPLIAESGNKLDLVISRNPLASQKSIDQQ
# Assay: holdup assay
# Set-up: key: below the threshold = too weak to quantify, mostly under pKd 3.1 to 4
# Details: plain residues with an end cap or a label only (N-terminal biotin on a linker: ado-ado)
row,Binder,pKd
1,"RFQQRMQTHV [KIRREL1, Q96J84]",below the threshold
2,"EPQYQPGENL [SRC, P12931]",below the threshold

# Target: NHERF4_4, Q86UT5
# Sequence (Q86UT5 464-550): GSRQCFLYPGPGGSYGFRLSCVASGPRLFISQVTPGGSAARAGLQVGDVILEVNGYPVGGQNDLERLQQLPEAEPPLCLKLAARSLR
# Assay: holdup assay
# Set-up: key: below the threshold = too weak to quantify, mostly under pKd 3.1 to 4
# Details: plain residues with an end cap or a label only (N-terminal biotin on a linker: ado-ado)
row,Binder,pKd
1,"RFQQRMQTHV [KIRREL1, Q96J84]",below the threshold
2,"EPQYQPGENL [SRC, P12931]",below the threshold

# Target: T11, RHPN1, Q8TCX5
# T11 sequence (Q8TCX5 508-602, limits assumed, looked up): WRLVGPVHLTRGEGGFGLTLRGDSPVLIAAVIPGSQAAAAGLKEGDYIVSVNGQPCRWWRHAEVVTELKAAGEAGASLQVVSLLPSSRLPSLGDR
# Assay: holdup assay
# Set-up: key: below the threshold = too weak to quantify, mostly under pKd 3.1 to 4
# Details: plain residues with an end cap or a label only (N-terminal biotin on a linker: ado-ado)
row,Binder,pKd
1,"RFQQRMQTHV [KIRREL1, Q96J84]",3.91
2,"EPQYQPGENL [SRC, P12931]",below the threshold

# Target: MAGI2_2, Q86UL8
# Sequence (Q86UL8 410-522): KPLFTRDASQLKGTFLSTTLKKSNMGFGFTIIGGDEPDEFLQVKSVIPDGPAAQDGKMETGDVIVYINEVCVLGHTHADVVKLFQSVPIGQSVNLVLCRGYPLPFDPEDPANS
# Assay: holdup assay
# Set-up: key: below the threshold = too weak to quantify, mostly under pKd 3.1 to 4
# Details: plain residues with an end cap or a label only (N-terminal biotin on a linker: ado-ado)
row,Binder,pKd
1,"RFQQRMQTHV [KIRREL1, Q96J84]",5.49
2,"EPQYQPGENL [SRC, P12931]",below the threshold

# Target: T12, DFNB31_2, Q9P202
# T12 sequence (Q9P202 274-371, limits assumed, looked up): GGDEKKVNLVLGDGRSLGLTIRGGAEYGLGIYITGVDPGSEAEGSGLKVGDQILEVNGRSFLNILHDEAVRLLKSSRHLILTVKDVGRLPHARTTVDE
# Assay: holdup assay
# Set-up: key: below the threshold = too weak to quantify, mostly under pKd 3.1 to 4
# Details: plain residues with an end cap or a label only (N-terminal biotin on a linker: ado-ado)
row,Binder,pKd
1,"RFQQRMQTHV [KIRREL1, Q96J84]",below the threshold
2,"EPQYQPGENL [SRC, P12931]",below the threshold

# Target: GRIP2_7, Q9C0E4
# Sequence (Q9C0E4 934-1023): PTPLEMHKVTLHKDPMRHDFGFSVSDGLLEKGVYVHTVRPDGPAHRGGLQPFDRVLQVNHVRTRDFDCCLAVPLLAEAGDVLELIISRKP
# Assay: holdup assay
# Set-up: key: below the threshold = too weak to quantify, mostly under pKd 3.1 to 4
# Details: plain residues with an end cap or a label only (N-terminal biotin on a linker: ado-ado)
row,Binder,pKd
1,"RFQQRMQTHV [KIRREL1, Q96J84]",3.52
2,"EPQYQPGENL [SRC, P12931]",below the threshold

# Target: T13, APBA2_1, Q99767
# T13 sequence (Q99767 563-664, limits assumed, looked up): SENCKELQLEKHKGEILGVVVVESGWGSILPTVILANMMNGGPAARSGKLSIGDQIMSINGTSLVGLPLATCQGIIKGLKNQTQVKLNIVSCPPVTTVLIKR
# Assay: holdup assay
# Set-up: key: below the threshold = too weak to quantify, mostly under pKd 3.1 to 4
# Details: plain residues with an end cap or a label only (N-terminal biotin on a linker: ado-ado)
row,Binder,pKd
1,"RFQQRMQTHV [KIRREL1, Q96J84]",below the threshold
2,"EPQYQPGENL [SRC, P12931]",below the threshold
